Test [1] has as its target His-tagged GMAP (truncated form, 1-490 aa). The test can be described thus: GST-pulldown, quantified band intensity. Particulars: His-GMAP truncated form (aa 1-490); N = 3; parent: est. 3.0 (est. ± 0.7 SD); read off a plot.
The target of test [2] is GST-tagged Atg8a-WT (UniProt Q9W2S2). In words: GST-pulldown, quantified band intensity. As to conditions: GMAP truncated form (1-490 aa); N = 3; parent: est. 1.6 (est. ± 0.18 SD); read off a plot.

Our source for the response values is article PMC9637997.

Chain of UniProt Q9W2S2 (Q9W2S2 entry or part of it): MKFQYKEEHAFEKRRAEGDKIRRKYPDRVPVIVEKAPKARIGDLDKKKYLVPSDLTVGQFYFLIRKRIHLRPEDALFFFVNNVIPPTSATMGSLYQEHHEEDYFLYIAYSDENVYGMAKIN

Turning to “GST-tagged Atg8a-WT (from UniProt Q9W2S2) K48A; Y49A”, the response in test [1] was 1.

Turning to “His-tagged GMAP (truncated form, 1-490 aa) F322A; V325A”, the response in test [2] was determined as 1.
